Test results as given in IntAct's records for PubMed 15207857.

B1: Glutamate receptor ionotropic, delta-2 (Mus musculus), Q61625 (parent)
chain: MEVFPLLLFLSFCWSRTWDLATADSIIHIGAIFDESAKKDDEVFRTAVGDLNQNEEILQTEKITFSVTFVDGNNPFQAVQEACELMNQGILALVSSIGCTSAGSLQSLADAMHIPHLFIQRSTAGTPRSGCGLTRSNRNDDYTLSVRPPVYLNEVILRVVTEYAWQKFIIFYDSEYDIRGIQEFLDKVSQQGMDVALQKVENNINKMITTLFDTMRIEELNRYRDTLRRAILVMNPATAKSFISEVVETNLVAFDCHWIIINEEINDVDVQELVRRSIGRLTIIRQTFPVPQNISQRCFRGNHRISSSLCDPKDPFAQNMEISNLYIYDTVLLLANAFHKKLEDRKWHSMASLSCIRKNSKPWQGGRSMLETIKKGGVNGLTGDLEFGENGGNPNVHFEILGTNYGEELGRGVRKLGCWNPVTGLNGSLTDKKLENNMRGVVLRVVTVLEEPFVMVSENVLGKPKKYQGFSIDVLDALSNYLGFNYEIYVAPDHKYGSPQEDGTWNGLVGELVFKRADIGISALTITPDRENVVDFTTRYMDYSVGVLLRRAEKTVDMFACLAPFDLSLWACIAGTVLLVGLLVYLLNWLNPPRLQMGSMTSTTLYNSMWFVYGSFVQQGGEVPYTTLATRMMMGAWWLFALIVISSYTANLAAFLTITRIESSIQSLQDLSKQTDIPYGTVLDSAVYQHVRMKGLNPFERDSMYSQMWRMINRSNGSENNVLESQAGIQKVKYGNYAFVWDAAVLEYVAINDPDCSFYTVGNTVADRGYGIALQHGSPYRDVFSQRILELQQSGDMDILKHKWWPKNGQCDLYSSVDAKQKGGALDIKSLAGVFCILAAGIVLSCLIAVLETWWSRRKGSRVPSKEDDKEIDLEHLHRRVNSLCTDDDSPHKQFSTSSIDLTPLDIDTLPTRQALEQISDFRNTHITTTTFIPEQIQTLSRTLSAKAASGFAFGSVPEHRTGPFRHRAPNGGFFRSPIKTMSSIPYQPTPTLGLNLGNDPDRGTSI
partner: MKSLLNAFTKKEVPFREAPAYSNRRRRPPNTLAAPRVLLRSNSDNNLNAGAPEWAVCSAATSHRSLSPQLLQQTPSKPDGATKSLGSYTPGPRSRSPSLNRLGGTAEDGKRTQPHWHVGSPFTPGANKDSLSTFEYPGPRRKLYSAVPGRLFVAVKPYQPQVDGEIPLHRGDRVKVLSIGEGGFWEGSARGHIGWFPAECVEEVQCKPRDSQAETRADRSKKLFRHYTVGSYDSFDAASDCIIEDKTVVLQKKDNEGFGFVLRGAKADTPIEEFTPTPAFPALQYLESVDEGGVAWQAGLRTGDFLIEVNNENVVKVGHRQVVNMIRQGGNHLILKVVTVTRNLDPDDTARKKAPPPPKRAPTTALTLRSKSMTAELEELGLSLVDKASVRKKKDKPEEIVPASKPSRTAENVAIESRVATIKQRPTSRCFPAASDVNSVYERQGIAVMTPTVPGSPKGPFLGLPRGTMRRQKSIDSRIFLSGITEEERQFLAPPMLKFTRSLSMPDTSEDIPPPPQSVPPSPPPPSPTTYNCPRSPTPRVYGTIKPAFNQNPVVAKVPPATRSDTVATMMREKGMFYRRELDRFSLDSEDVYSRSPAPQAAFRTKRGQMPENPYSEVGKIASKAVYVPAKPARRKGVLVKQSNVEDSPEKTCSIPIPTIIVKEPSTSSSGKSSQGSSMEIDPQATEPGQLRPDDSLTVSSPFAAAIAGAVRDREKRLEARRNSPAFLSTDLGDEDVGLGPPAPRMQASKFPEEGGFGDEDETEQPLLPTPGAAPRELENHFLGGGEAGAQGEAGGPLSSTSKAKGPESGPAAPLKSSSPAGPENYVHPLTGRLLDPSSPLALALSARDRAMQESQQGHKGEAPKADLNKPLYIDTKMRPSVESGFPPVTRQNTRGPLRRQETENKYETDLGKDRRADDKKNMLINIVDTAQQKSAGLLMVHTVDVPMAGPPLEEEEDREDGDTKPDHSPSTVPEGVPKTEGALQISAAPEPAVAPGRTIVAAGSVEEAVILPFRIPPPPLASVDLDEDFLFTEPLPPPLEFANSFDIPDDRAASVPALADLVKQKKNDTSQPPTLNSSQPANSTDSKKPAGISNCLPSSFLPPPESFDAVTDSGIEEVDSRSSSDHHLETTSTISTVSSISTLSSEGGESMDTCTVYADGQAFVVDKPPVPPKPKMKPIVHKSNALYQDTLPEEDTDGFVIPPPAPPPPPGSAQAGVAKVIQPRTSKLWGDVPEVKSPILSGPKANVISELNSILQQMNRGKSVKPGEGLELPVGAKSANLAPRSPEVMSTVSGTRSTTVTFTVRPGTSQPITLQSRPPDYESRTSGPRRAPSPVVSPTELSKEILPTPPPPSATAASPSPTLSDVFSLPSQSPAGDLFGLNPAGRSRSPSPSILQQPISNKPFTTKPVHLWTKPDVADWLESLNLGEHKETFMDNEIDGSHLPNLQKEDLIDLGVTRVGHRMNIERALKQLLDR
B2: Glutamate receptor ionotropic, delta-2 (Mus musculus), Q61625 (parent)
chain: B1 chain

Variants of: B1
Conditions: with shan2_mouse Shank2, Q80Z38

Variant | effect of a mutation on the interaction
S920A | disrupting interaction
T930A | decreasing interaction
T930A;F932A | decreasing interaction

Variants of: B1
Conditions: with shan2_mouse Shank2, Q80Z38
Remark: another data set of the same source

Variant | effect of a mutation on the interaction
S920A;T930A;F932A | disrupting interaction

Variants of: B2
Conditions: with shan1_rat Shank1, Q9WV48
Sequence of shan1_rat Shank1, Q9WV48 (Q9WV48 whole entry): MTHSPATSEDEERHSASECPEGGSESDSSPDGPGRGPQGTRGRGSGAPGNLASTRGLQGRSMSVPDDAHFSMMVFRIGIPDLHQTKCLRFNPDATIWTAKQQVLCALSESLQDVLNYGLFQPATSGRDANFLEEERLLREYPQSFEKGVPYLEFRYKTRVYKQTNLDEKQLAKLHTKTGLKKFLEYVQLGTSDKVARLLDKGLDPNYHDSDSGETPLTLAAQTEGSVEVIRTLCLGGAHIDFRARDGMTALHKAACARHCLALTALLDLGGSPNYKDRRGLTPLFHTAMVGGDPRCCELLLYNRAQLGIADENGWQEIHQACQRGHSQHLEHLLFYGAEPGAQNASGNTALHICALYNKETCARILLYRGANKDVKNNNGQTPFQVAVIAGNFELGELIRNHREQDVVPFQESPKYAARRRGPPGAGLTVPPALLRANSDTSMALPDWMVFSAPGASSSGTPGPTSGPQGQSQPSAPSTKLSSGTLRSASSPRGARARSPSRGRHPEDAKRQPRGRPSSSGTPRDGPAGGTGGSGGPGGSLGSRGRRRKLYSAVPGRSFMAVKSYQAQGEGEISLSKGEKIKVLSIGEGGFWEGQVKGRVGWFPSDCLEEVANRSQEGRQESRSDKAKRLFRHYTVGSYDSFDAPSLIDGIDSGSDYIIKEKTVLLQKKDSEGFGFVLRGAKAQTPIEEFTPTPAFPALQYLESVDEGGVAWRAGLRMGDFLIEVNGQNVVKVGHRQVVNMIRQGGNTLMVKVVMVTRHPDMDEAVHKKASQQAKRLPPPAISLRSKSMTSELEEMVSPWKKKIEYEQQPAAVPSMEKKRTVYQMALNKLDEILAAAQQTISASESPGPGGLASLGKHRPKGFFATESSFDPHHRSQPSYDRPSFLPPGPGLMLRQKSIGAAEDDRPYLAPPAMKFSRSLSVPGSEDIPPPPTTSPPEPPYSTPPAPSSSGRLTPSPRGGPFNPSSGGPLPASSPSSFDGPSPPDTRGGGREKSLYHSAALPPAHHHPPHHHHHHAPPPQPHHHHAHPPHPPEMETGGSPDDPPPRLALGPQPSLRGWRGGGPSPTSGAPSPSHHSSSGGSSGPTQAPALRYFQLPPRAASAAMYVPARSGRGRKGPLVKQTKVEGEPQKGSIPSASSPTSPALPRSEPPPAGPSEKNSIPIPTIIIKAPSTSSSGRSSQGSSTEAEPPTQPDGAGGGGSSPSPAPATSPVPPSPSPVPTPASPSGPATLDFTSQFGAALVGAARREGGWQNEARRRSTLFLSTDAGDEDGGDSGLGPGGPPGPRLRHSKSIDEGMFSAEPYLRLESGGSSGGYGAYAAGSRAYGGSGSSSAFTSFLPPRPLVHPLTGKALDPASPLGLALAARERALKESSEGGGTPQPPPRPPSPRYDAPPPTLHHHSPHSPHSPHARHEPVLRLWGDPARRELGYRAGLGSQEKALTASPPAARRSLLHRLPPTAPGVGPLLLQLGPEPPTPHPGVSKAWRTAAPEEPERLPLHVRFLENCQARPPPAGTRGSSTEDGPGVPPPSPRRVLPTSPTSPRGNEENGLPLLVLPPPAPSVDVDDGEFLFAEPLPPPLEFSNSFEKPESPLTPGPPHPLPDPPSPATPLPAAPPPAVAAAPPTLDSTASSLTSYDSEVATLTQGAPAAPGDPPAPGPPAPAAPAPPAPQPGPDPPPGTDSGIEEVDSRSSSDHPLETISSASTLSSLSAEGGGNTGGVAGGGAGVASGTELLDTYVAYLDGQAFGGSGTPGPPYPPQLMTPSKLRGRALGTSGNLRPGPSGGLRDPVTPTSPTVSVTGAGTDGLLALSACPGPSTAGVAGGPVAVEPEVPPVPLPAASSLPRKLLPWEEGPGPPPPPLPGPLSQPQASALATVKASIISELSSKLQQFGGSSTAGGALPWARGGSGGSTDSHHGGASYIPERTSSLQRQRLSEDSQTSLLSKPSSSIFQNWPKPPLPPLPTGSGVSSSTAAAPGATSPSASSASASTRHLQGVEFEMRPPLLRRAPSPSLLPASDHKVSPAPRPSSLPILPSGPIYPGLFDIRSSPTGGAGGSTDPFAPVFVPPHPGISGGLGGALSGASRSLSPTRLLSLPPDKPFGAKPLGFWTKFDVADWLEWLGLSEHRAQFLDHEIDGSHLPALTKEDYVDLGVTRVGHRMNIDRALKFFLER

Variant | effect of a mutation on the interaction
T930A;F932A | disrupting interaction
S920A | disrupting interaction
T930A | decreasing interaction
